Data taken from US20060188503A1.

How the values were obtained:
[1] = target: KDR receptor on human umbilical vein endothelial cells (HUVEC) (human) (UniProt P35968); assay: cell-based or functional assay
[2] = target: KDR receptor with a gD tag at the N-terminus, on CHO cells (UniProt P35968); assay: cell-based or functional assay

Sequence of KDR receptor on human umbilical vein endothelial cells (HUVEC) (human) (P35968 20-1356): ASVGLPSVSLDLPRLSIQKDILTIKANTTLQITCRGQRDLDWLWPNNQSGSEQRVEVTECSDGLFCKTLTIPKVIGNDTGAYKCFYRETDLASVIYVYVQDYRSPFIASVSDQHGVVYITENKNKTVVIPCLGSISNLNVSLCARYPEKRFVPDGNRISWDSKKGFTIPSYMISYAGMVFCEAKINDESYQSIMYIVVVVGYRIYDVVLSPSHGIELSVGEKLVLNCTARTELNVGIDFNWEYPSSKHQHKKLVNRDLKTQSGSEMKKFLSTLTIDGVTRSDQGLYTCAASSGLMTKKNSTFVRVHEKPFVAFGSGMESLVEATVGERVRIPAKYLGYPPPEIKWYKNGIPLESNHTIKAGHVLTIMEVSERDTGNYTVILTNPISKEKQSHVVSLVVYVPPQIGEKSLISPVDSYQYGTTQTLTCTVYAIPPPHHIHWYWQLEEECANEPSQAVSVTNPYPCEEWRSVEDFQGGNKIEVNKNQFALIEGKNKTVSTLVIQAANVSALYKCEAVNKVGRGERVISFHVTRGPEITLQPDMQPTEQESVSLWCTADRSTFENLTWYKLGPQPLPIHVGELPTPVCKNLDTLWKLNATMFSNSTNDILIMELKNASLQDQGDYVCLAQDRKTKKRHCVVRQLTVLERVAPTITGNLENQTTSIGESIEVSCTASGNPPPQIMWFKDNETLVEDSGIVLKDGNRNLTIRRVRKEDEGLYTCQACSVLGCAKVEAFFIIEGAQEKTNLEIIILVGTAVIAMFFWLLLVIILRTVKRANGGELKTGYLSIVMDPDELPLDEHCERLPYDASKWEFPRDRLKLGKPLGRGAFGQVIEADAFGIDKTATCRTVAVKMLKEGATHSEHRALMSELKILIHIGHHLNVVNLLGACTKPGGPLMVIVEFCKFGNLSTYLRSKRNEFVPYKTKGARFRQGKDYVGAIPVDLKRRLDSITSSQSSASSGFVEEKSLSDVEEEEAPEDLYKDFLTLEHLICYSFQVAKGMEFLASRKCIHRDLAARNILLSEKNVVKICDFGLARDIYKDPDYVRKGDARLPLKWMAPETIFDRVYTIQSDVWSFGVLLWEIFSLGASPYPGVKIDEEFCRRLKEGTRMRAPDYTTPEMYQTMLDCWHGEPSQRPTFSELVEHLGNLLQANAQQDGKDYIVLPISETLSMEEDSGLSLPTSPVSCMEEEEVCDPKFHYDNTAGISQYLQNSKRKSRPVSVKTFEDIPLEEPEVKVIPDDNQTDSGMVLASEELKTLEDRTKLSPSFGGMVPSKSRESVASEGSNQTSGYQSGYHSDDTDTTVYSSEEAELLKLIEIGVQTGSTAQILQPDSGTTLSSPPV

- Endothelial Cell Proliferation Activity (HUVEC, 3H-thymidine), concentration [1]: 0.5 nM
- Phosphorylation-Inducing Activity (KIRA), concentration at midpoint absorbance [2]: 2 nM
Substance: Native VEGF (8-109) (from UniProt P15692 214-315) (ligand)
